In PMC6748581:

Legend:
Assay in all cases: SPR
[1] = biological target: anti-mIL-13 IgA2m2 Dimer (human) (UniProt P01591)
[2] = biological target: anti-mIL-13 IgA2m1 P221R Monomer (human)
[3] = biological target: anti-mIL-13 IgA2m1 Monomer (human)
[4] = biological target: anti-mIL-13 IgA2m2 Tetramer (human) (UniProt P01591)
[5] = biological target: anti-mIL-13 IgA2m1 Dimer (human) (UniProt P01591)
[6] = biological target: anti-mIL-13 IgA1 Dimer (human) (UniProt P01591)
[7] = biological target: Anti-IL-13 IgG1 ΔK-C242 IgA2m1 Fc Dimer (human) (UniProt P01591)
[8] = biological target: anti-mIL-13 IgA1 Monomer (human)
[9] = biological target: anti-mIL-13 IgA2m1 P221R Dimer (human) (UniProt P01591)
[10] = biological target: anti-mIL-13 IgA2m2 Monomer (human)
[11] = biological target: Anti-IL-13 IgG1 ΔK-P221 IgA2m1 Fc Dimer (human) (UniProt P01591)
[12] = biological target: anti-mIL-13 human IgG1 (human)
[13] = biological target: Anti-HER2 IgA2m2 Polymer Aglycosylated (human) (UniProt P01591)

Row | Molecule | Kd [1] | Kd [2] | Kd [3] | Kd [4] | Kd [5] | Kd [6] | Kd [7] | Kd [8] | Kd [9] | Kd [10] | Kd [11] | Kd [12] | Kd [13]
1 | human Fc alpha receptor 1 (from UniProt P24071) | 0.597 µM | 0.443 µM | 0.429 µM | 0.533 µM | 0.499 µM | 0.369 µM | 0.938 µM | 0.425 µM | 0.462 µM | 0.455 µM | 1.07 µM | – | –
2 | human FcRn co-expressed with human beta-2 microglobulin (from UniProt P55899;P61769) (complex) | – | – | – | – | – | – | 9.9 µM | – | – | – | 8.4 µM | 9.8 µM | –
3 | human polymeric immunoglobulin receptor (from UniProt P01833) | 0.0139 µM | – | – | 0.00193 µM | 0.00505 µM | 0.0088 µM | 0.00441 µM | – | 0.0155 µM | – | 0.00767 µM | – | 0.00072 µM
4 | mouse FcRn co-expressed with mouse beta-2 microglobulin (from UniProt Q61559;P01887) (complex) | – | – | – | – | – | – | 7.4 µM | – | – | – | 6.8 µM | 7.8 µM | –
5 | mouse polymeric immunoglobulin receptor (from UniProt O70570) | – | – | – | – | – | – | – | – | – | – | – | – | 0.00055 µM
6 | mouse polymeric immunoglobulin receptor (receptor) KSPIFGPQEVSSIEGDSVSITCYYPDTSVNRHTRKYWCRQGASGMCTTLISSNGYLSKEYSGRANLINFPENNTFVINIEQLTQDDTGSYKCGLGTSNRGLSFDVSLEVSQVPELPSDTHVYTKDIGRNVTIECPFKRENAPSKKSLCKKTNQSCELVIDSTEKVNPSYIGRAKLFMKGTDLTVFYVNISHLTHNDAGLYICQAGEGPSADKKNVDLQVLAPEPELLYKDLRSSVTFECDLGREVANEAKYLCRMNKETCDVIINTLGKRDPDFEGRILITPKDDNGRFSVLITGLRKEDAGHYQCGAHSSGLPQEGWPIQTWQLFVNEESTIPNRRSVVKGVTGGSVAIACPYNPKESSSLKYWCRWEGDGNGHCPVLVGTQAQVQEEYEGRLALFDQPGNGTYTVILNQLTTEDAGFYWCLTNGDSRWRTTIELQVAEATREPNLEVTPQNATAVLGETFTVSCHYPCKFYSQEKYWCKWSNKGCHILPSHDEGARQSSVSCDQSSQLVSMTLNPVSKEDEGWYWCGVKQGQTYGETTAIYIAVEERTRGSSHVNPTDANARAKVALEEEVVDSSISEKENKAIPNPGPFANEREIQNVGDQAQENRASGDAGSADGQSRSSSSK | 0.00245 µM | – | – | 0.00069 µM | 0.00254 µM | 0.00266 µM | 0.00332 µM | – | 0.00559 µM | – | 0.00332 µM | – | –
